# Data published in publication doi:10.1101/2023.02.23.529715 (bioRxiv, 2023).
# Read-outs that look alike come from different tables or passages of the source.
# T1: GFP-HilD (Salmonella enterica, UniProt P0CL08 1-309)
# T1 sequence (looked up): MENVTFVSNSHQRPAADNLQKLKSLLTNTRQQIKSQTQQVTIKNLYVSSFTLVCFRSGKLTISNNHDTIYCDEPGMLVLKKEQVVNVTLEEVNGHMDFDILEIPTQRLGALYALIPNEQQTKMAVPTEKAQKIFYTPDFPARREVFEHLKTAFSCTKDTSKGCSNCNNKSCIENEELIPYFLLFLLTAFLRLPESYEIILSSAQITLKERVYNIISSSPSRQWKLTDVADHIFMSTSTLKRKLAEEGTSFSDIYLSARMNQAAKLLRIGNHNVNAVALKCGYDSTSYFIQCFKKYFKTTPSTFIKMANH
# B1: HilD N-terminal domain (HilD NTD, residues 7-206) (domain or fragment, Salmonella enterica, UniProt P0CL08 7-206, looked up)
# chain: VSNSHQRPAADNLQKLKSLLTNTRQQIKSQTQQVTIKNLYVSSFTLVCFRSGKLTISNNHDTIYCDEPGMLVLKKEQVVNVTLEEVNGHMDFDILEIPTQRLGALYALIPNEQQTKMAVPTEKAQKIFYTPDFPARREVFEHLKTAFSCTKDTSKGCSNCNNKSCIENEELIPYFLLFLLTAFLRLPESYEIILSSAQIT
# B2: HilD (full length, unfused) (natural protein, Salmonella enterica, UniProt P0CL08 1-309, looked up)
# chain: T1 sequence (looked up)
# How the values were obtained:
# [1] = molecular target: GFP-HilD (Salmonella enterica) (UniProt P0CL08); assay: MST
# [2] = molecular target: HilD N-terminal domain (HilD NTD, residues 7-206) (Salmonella enterica) (UniProt P0CL08); assay: SEC-MALS
# [3] = molecular target: HilD (full length, unfused) (Salmonella enterica) (UniProt P0CL08); assay: SEC-MALS
# [4] = molecular target: GFP-HilD (Salmonella enterica) (UniProt P0CL08); assay: MST; remark: listed apart in the source
# SEC-MALS = molecular target: the molecule itself; assay: SEC-MALS
# GFP-HilD [5] = molecular target: T1, GFP-HilD; assay: MST
# GFP-HilD [6] = molecular target: T1, GFP-HilD; assay: MST; remark: listed apart in the source
Molecule,Kd [1] [nM],stoichiometry N (HilE per HilD NTD) [2],stoichiometry N (HilE per HilD) [3],Kd [4] [nM],stoichiometry N (SEC-MALS),Kd (GFP-HilD [5]) [nM],Kd (GFP-HilD [6]) [nM]
HilE (natural protein),1700,1,1,1680,–,–,–
B1,–,–,–,–,2,–,–
B2,–,–,–,–,2,4520 ± 500,3390 ± 770
